Source: US20110288276A1 (AstraZeneca / MedImmune, published 2011)

Key:
[1] = molecular target: T1, Human FcRn (soluble human neonatal Fc receptor) (human, UniProt P55899 24-290; P61769 21-119, limits assumed); experiment: SPR (BIAcore 3000), ratio of steady-state Kd values, pH 6.0
T1 construct: also called soluble human FcRn
From the text: (§1) The interaction of soluble human FcRn with immobilized unmutated human Fc and Fc/YTE was monitored by surface plasmon resonance detection using a BIAcore 3000 instrument (GE Healthcare, Piscataway, N.J.). Unmutated human Fc and Fc/YTE were first coupled to the dextran matrix of a CM5 sensor chip (GE Healthcare) using an Amine Coupling Kit at a surface density of between 4139 and 4291 RU according to the manufacturer's instructions. Human FcRn was used in equilibrium binding experiments at concentrations ranging from 1.46 nM to 3 uM at a flow rate of 5 uL/min. Dilutions and binding experiments were carried out at 25° C. in phosphate buffered saline (PBS), pH 6.0 containing 0.05% Tween 20. Steady-state binding data were collected for 50 min. Both Fc surfaces were regenerated with six 1-min injection of PBS, pH 7.4 containing 0.05% Tween 20. Human FcRn was also allowed to flow over an uncoated cell. The sensorgrams from these blank runs were then subtracted from those obtained with Fc-coupled chips. Dissociation constants (Kds) were determined by fitting the corresponding binding isotherms.

[2] = molecular target: T1, Human FcRn (soluble human neonatal Fc …); experiment: SPR (BIAcore 3000), Fc amine-coupled to CM5 chip, soluble human FcRn 1.46 nM to 3 uM, steady-state binding isotherm, PBS pH 6.0 with 0.05% Tween 20, 25 C; error is SD of 2 experiments
From the text: as §1
^a Affinity measurements were carried out by BIAcore as described in Materials and Methods. Errors were estimated as the standard deviations of 2 independent experiments for each interacting pair.

T1 sequence (P55899 24-290 limits assumed, chain 1 of 2): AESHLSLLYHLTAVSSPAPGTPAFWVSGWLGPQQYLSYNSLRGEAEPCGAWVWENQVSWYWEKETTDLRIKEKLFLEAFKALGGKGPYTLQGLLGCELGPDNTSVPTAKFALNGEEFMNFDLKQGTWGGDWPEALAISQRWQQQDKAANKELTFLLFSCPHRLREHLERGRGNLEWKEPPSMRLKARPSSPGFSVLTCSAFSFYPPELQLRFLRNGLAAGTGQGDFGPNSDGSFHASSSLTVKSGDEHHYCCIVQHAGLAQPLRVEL
T1 sequence (P61769 21-119 limits assumed, chain 2 of 2): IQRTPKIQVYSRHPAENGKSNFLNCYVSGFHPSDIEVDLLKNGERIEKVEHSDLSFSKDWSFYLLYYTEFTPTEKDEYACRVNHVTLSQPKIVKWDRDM

B1: Fc/YTE (human IgG1 Fc fragment containing the M252Y/S254T/T256E triple substitution) (other)
chain: GGPSVFLFPPKPKDTLYITREPEVTCVVVDVSHEDPEVKFNWYVDGVEVHNAKTKPREEQYNSTYRVVSVLTVLHQDWLNGKEYKCKVSNKALPAPIEKTISKAKGQPREPQVYTLPPSREEMTKNQVSLTCLVKGFYPSDIAVEWESNGQPENNYKTTPPVLDSDGSFFLYSKLTVDKSRWQQGNVFSCSVMHEALHNHYTQKSLSLS
modifications: one branched N-linked carbohydrate chain attached to N297 (EU numbering)
notes: Fc portion (heavy chain residues 223-447, EU) of MEDI-524 with M252Y/S254T/T256E, expressed in HEK 293 cells; It consists of two chemically identical polypeptides with at least one interchain disulfide at C226 and/or C229; In the assay it was amine-coupled to a CM5 chip; also called human IgG Fc variant; YTE-modified human Fc
With B1 the “fold higher binding affinity than the unmutated human Fc” value [1] was about 8 fold and the Kd [2] was 72 nM.
